This passage reports koff results from paper PMC5552742, “Kinetic and Structural Characterization of the Effects of Membrane on the Complex of Cytochrome b5 and Cytochrome c” (Scientific Reports, 2017).

Holding throughout (conditions): both partners purified
Assay [1] has as its target T1, full-length rabbit cytochrome b5 (rabbit, UniProt P00169 1-134).
T1 construct: Uniformly 15N-labelled where it is the observed protein in NMR, unlabelled otherwise; Ferric in NMR; reduced with dithionite (ferrous) for stopped flow; also called cytb 5; cytb5; source: E. coli C41, pLW01 plasmid, purified
As to the kind of experiment: stopped-flow absorbance kinetics; lipid-free cytb5; 25 °C, anaerobic; pre-reduced cytb5 mixed with ferric cyt c, final 6 uM cytb5 and 6.6 uM cyt c; micro-rates from numerical fit of the scheme binding (k1, k2) then electron transfer (k3); k2 fixed to zero.

In assay [2] the target is T1, full-length rabbit cytochrome b5. Kind of assay: stopped-flow absorbance kinetics; cytb5 in DMPC/DHPC bicelles; 25 °C, anaerobic; pre-reduced cytb5 mixed with ferric cyt c, final 6 uM cytb5 and 6.6 uM cyt c; micro-rates from numerical fit of the scheme binding (k1, k2) then electron transfer (k3).
Assay [3] has the same target. Kind of assay: stopped-flow absorbance kinetics; cytb5 in nanodiscs; 25 °C, anaerobic; pre-reduced cytb5 mixed with ferric cyt c, final 6 uM cytb5 and 6.6 uM cyt c; micro-rates from numerical fit of the scheme binding (k1, k2) then electron transfer (k3).

T1 sequence (P00169 whole entry): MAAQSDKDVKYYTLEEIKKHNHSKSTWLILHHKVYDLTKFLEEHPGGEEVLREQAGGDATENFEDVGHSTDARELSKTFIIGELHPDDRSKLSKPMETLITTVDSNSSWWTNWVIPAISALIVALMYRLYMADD

B1: equine cytochrome c (natural protein)
chain: not shown
notes: Unlabelled in the titrations into 15N-cytb5, in SEC/DLS and in stopped flow (ferric); uniformly 15N-labelled where it is the observed protein in NMR; also called cyt c; horse cyt c; source: obtained through a collaborator, prepared and purified as described previously; 15N-labeled form expressed and purified as reported in the literature
For orientation: koff means the first-order rate constant of dissociation. Turning to B1, the off-rate (koff) in assay [1] is ~0 s⁻¹; in assay [2] it was 46.2 ± 0.86 s⁻¹; in assay [3], 54.54 ± 0.35 s⁻¹.
